Results: patent US20140363428A1 (Chugai, published 2014)
Substitutions are numbered along the chain they refer to.

B1: IgG1-F1256 (antibody)
heavy: QVQLQESGPGLVKPSETLSLTCAVSGHSISHDHAWSWVRQPPGEGLEWIGFISYSGITNYNPSLQGRVTISRDNSKNTLYLQMNSLRAEDTAVYYCARSLARTTAMDYWGEGTLVTVSSASTKGPSVFPLAPSSKSTSGGTAALGCLVKDYFPEPVTVSWNSGALTSGVHTFPAVLQSSGLYSLSSVVTVPSSSLGTQTYICNVNHKPSNTKVDKKVEPKSCDKTHTCPPCPAPELRGGPKVFLFPPKPKDTLYISRTPEVTCVVVDVSHEDPEVKFNWYVDGVEVHNAKTKPREEQYNSTYRVVSVLTVLHHDWLNGKEYKCKVSNKALPAPIEKTISKAKGQPREPQVYTLPPSRDELTKNQVSLTCLVKGFYPSDIAVEWESNGQPENNYKTTPPVLDSDGSFFLYSKLTVDKSRWQQGNVFSCSVMHEALHYHVTRKELSLSP
light: not shown
notes: EU numbering; copies: 2 + 2
B2: IgG1-F1257 (antibody)
heavy: B1 heavy with T309A, H313A
light: not shown
notes: EU numbering; copies: 2 + 2
B3: IgG1-F1258 (antibody)
heavy: B1 heavy with T309A
light: not shown
notes: EU numbering; copies: 2 + 2
B4: IgG1-F1259 (antibody)
heavy: B1 heavy with T309Q, H313A
light: not shown
notes: EU numbering; copies: 2 + 2
B5: IgG1-F1260 (antibody)
heavy: B1 heavy with T309Q
light: not shown
notes: EU numbering; copies: 2 + 2
B6: IgG1-F1261 (antibody)
heavy: B1 heavy with H313Q, E442D
light: not shown
notes: EU numbering; copies: 2 + 2
B7: IgG1-F1263 (antibody)
heavy: B1 heavy with H313Q, R440K, E442D
light: not shown
notes: EU numbering; copies: 2 + 2
B8: IgG1-F1264 (antibody)
heavy: B1 heavy with T258A, H313Q
light: not shown
notes: EU numbering; copies: 2 + 2
B9: IgG1-F1265 (antibody)
heavy: B1 heavy with T258G, H313Q
light: not shown
notes: EU numbering; copies: 2 + 2
B10: IgG1-F1266 (antibody)
heavy: B1 heavy with T258N, H313Q
light: not shown
notes: EU numbering; copies: 2 + 2
B11: IgG1-F1269 (antibody)
heavy: B1 heavy with H313Q, H435D, R440K, E442D
light: not shown
notes: EU numbering; copies: 2 + 2
B12: IgG1-F1270 (antibody)
heavy: B1 heavy with S256A, H313Q, R440K, E442D
light: not shown
notes: EU numbering; copies: 2 + 2
B13: IgG1-F1271 (antibody)
heavy: B1 heavy with S256A, H313Q, H435D
light: not shown
notes: EU numbering; copies: 2 + 2
B14: IgG1-F1272 (antibody)
heavy: B1 heavy with S256A, H313Q, H435D, R440K, E442D
light: not shown
notes: EU numbering; copies: 2 + 2
B15: IgG1-F1273 (antibody)
heavy: B1 heavy with T258Q, H313Q, R440K, E442D
light: not shown
notes: EU numbering; copies: 2 + 2
B16: IgG1-F1274 (antibody)
heavy: B1 heavy with T258Q, H313Q, H435D
light: not shown
notes: EU numbering; copies: 2 + 2
B17: IgG1-F1275 (antibody)
heavy: B1 heavy with T258Q, H313Q, H435D, R440K, E442D
light: not shown
notes: EU numbering; copies: 2 + 2
B18: IgG1-F1276 (antibody)
heavy: B1 heavy with T258A, H313Q, R440K, E442D
light: not shown
notes: EU numbering; copies: 2 + 2
B19: IgG1-F1277 (antibody)
heavy: B1 heavy with T258A, H313Q, H435D
light: not shown
notes: EU numbering; copies: 2 + 2
B20: IgG1-F1279 (antibody)
heavy: B1 heavy with T258G, H313Q, R440K, E442D
light: not shown
notes: EU numbering; copies: 2 + 2
B21: IgG1-F1280 (antibody)
heavy: B1 heavy with T258G, H313Q, H435D
light: not shown
notes: EU numbering; copies: 2 + 2
B22: IgG1-F1281 (antibody)
heavy: B1 heavy with T258G, H313Q, H435D, R440K, E442D
light: not shown
notes: EU numbering; copies: 2 + 2

biological target: T1, soluble human FcRn (human, UniProt P55899 24-297; P61769 21-119); assay: SPR (Biacore T100), antibody captured by protein L, hFcRn as analyte, pH 7.0, 25 C;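 also: KD calculated from fitted association and dissociation rate constants of the sensorgrams, protein L amine-coupled to the sensor chip, sodium phosphate running buffer with NaCl and Tween20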
T1 construct: Heterodimer of FcRn alpha chain and beta2-microglobulin; also called hFcRn
T1 sequence (P55899 24-297 limits assumed, chain 1 of 2): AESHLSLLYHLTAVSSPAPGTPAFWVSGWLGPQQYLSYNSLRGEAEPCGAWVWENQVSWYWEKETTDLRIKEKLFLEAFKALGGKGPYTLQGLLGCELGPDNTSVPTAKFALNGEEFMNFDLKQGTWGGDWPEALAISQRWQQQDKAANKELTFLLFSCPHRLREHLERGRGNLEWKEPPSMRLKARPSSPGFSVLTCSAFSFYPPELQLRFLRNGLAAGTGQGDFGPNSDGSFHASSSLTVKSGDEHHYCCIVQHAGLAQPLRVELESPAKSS
T1 sequence (P61769 21-119 limits assumed, chain 2 of 2): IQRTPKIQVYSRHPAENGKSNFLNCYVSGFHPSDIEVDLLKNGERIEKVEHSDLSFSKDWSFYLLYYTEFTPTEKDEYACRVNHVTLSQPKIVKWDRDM
Experimental: An appropriate amount of protein L (ACTIGEN) was immobilized onto Sensor chip CM4 (GE Healthcare) by the amino coupling method, and the chip was allowed to capture an antibody of interest. Then, diluted FcRn solutions and running buffer (as a reference solution) were injected to allow human FcRn to interact with the antibody captured on the sensor chip. The running buffer used comprised 50 mmol/l sodium phosphate, 150 mmol/l NaCl, and 0.05% (w/v) Tween20 (pH 7.0). FcRn was diluted using each buffer. The chip was regenerated using 10 mmol/l glycine-HCl (pH 1.5). Assays were carried out exclusively at 25 degrees C. The association rate constant ka (1/Ms) and dissociation rate constant kd (1/s), both of which are kinetic parameters, were calculated based on the sensorgrams obtained in the assays, and KD (M) of each antibody for human FcRn was determined from these values. Each parameter was calculated using Biacore T100 Evaluation Software (GE Healthcare).

Which Kd does the source give for B1 here?
The Kd was 160 nM.

With B2 as the binder, how does the Kd read?
Its Kd is 78 nM.

For B3, which Kd is on record?
The Kd was 110 nM.

How did the Kd turn out when B4 was run?
The Kd was 45 nM.

For B5, which Kd is on record?
The Kd was 65 nM.

How did the Kd turn out when B6 was run?
The Kd was 140 nM.

B7 was tested. Which Kd did it give?
The Kd was 120 nM.

B8 was tested. Which Kd did it give?
The Kd was 130 nM.

With B9 as the binder, how does the Kd read?
Its Kd is 160 nM.

Which Kd does the source give for B10 here?
Its Kd is 100 nM.

B11 was tested. Which Kd did it give?
The Kd was 170 nM.

B12 was tested. Which Kd did it give?
Its Kd is 120 nM.

With B13 as the binder, how does the Kd read?
The Kd was 200 nM.

Which Kd does the source give for B14 here?
The Kd was 170 nM.

Which Kd does the source give for B15 here?
Its Kd is 150 nM.

For B16, which Kd is on record?
Its Kd is 250 nM.

Which Kd does the source give for B17 here?
The Kd was 210 nM.

With B18 as the binder, how does the Kd read?
The Kd was 100 nM.

How did the Kd turn out when B19 was run?
The Kd was 170 nM.

With B20 as the binder, how does the Kd read?
Its Kd is 120 nM.

How did the Kd turn out when B21 was run?
The Kd was 210 nM.

For B22, which Kd is on record?
Its Kd is 170 nM.
